Assay results: patent publication US7135326B2, “UDP-glucosyltransferases” (E. I. du Pont de Nemours and Company, priority 2002, dated 2006)

B1: GT 4: Arabidopsis UDP-glucosyltransferase, GenBank AL161541, SEQ ID NO:12 (protein, listed as Arabidopsis thaliana)
chain: MNPSRHTHVMLVSFPGQGHVNPLLRLGKLIASKGLLVTFVTTEKPWGKKMRQANKIQDGVLKPVGLGFIRFEFFSDGFADDDEKRFDFDAFRPHLEAVGKQEIKNLVKRYNKEPVTCLINNAFVPWVCDVAEELHIPSAVLWVQSCACLTAYYYYHHRLVKFPTKTEPDISVEIPCLPLLKHDEIPSFLHPSSPYTAFGDIILDQLKRFENHKSFYLFIDTFRELEKDIMDHMSQLCPQAIISPVGPLFKMAQTLSSDVKGDISEPASDCMEWLDSREPSSVVYISFGTIANLKQEQMEEIAHGVLSSGLSVLWVVRPPMEGTFVEPHVLPRELEEKGKIVEWCPQERVLAHPAIACFLSHCGWNSTMEALTAGVPVVCFPQWGDQVTDAVYLADVFKTGVRLGRGAAEEMIVSREVVAEKLLEATVGEKAVELRENARRWKAEAEAAVADGGSSDMNFKEFVDKLVTKHVTREDNGEH
B2: Citrus GT: Citrus mitis UDP-glucosyltransferase, SEQ ID NO:31 (protein, listed as Citrus mitis)
chain: MGTESLVHVLLVSFPGHGHVNPLLRLGRLLASKGFFLTLTTPESFGKQMRKAGNFTYEPTPVGDGFIRFEFFEDGWDEDDPGRRDLDQYMAQLELIGKQVIPKIIKKSAEEYRPVSCLINNPFIPWVSDVAESLGLPSAMLWVQSCACFAAYYHYFHGLVPFPSEKEPEIDVQLPCMPLLKHDEVPSFLHPSTPYPFLRRAILGQYENLGKPFCILLDTFYELEKEIIDYMAKICPIKPVGPLFKNPKAPTLTVRDDCMKPDECIDWLDKKPPSSVVYISFGTVVYLKQEQVEEIGYALLNSGISFLWVMKPPPEDSGVKIVDLPDGFLEKVGDKGKVVQWSPQEKVLAHPSVACFVTHCGWNSTMESLASGVPVITFPQWGDQVTDAMYLCDVFKTGLRLCRGEAENRIISRDEVEKCLLEATAGPKAAELKESALKWKQEAEEAVADGGSSDRNIQAFVDEVRRRSVGIITSSKSKSIHRVKELVEKTATATANDKVELVES
B3: SA-GT: Brassica napus UDP-glucosyltransferase (GenBank Accession No. AF287143), SEQ ID NO:4 (protein, listed as Brassica napus)
chain: MELSSSPLPPHVMLLSFPGQGHVNPLLRLGKLLASKGLLVTFVTTESWGKKMRTANKIQDRALKPIGKGYLRFDFFDDGLPEDDDASRTNLTILRPQLELVGQQEIKNLVKRYKEVMKQPVTCLINNPFVSWVCDVAEDLQIPCAVLWVQSCACLASYYYYHHKLVDFPTETDPKIDVQIPCMPVLKHDEIPSFIHPFSPYSGLREVIIDQIKRLHKPFVVLIDTFYSLEKDIIDHMTNLSRTGVVRPLGPLYKMAKTLICDDIKGDMSETRDDCMEWLDSQPVSSVVYISFGTMAYVTQEQISEIAFGVLNAGVSFLWVIRQQELGVNKERHVLPEELKGKGKVVEWCSQEKVLAHPSVVCFVTHCGWNSTMEALSSGVPTVCFPQWGDQVTDAAYMSDVFKTGVRLSRGETEERVVPREEVAERLREVTKGEKATELKKNALKWKEEAEAAVARRGSSDRNLDEFVEKLCVKHVAKQNGSLNQNGSIQKLLLQKS
B4: GT 5: Arabidopsis UDP-glucosyltransferase, GenBank AL161541.2, SEQ ID NO:16 (protein, listed as Arabidopsis thaliana)
chain: MKMESSLPHVMLVSFPGQGHISPLLRLGKIIASKGLIVTFVTTEEPLGKKMRQANNIQDGVLKPVGLGFLRFEFFEDGFVYKEDFDLLQKSLEVSGKREIKNLVKKYEKQPVRCLINNAFVPWVCDIAEELQIPSAVLWVQSCACLAAYYYYHHQLVKFPTETEPEITVDVPFKPLTLKHDEIPSFLHPSSPLSSIGGTILEQIKRLHKPFSVLIETFQELEKDTIDHMSQLCPQVNFNPIGPLFTMAKTIRSDIKGDISKPDSDCIEWLDSREPSSVVYISFGTLAFLKQNQIDEIAHGILNSGLSCLWVLRPPLEGLAIEPHVLPLELEEKGKIVEWCQQEKVLAHPAVACFLSHCGWNSTMEALTSGVPVICFPQWGDQVTNAVYMIDVFKTGLRLSRGASDERIVPREEVAERLLEATVGEKAVELRENARRWKEEAESAVAYGGTSERNFQEFVDKLVDVKTMTNINNVV
B5: Eucalyptus GT: Eucalyptus grandis UDP-glucosyltransferase, SEQ ID NO:22 (protein, listed as Eucalyptus grandis)
chain: MGSEALVHVLLVSFPGQGHVNPLLRLGKRLASKGLLVTFTTPESIGKAMRKASNIGEELSPVGDGFIRFEFFEDGWDEDEIRRQDLDQYLPQLEKVGKVLIPEMIRRNAEQGRPISCLINNPFIPWVSDVADSLGLPSAMLWVQSCACFTSYYYYYHGLVPFPSETAMEIDVQLPCMPLLKHDEVPSFLYPTTPYPFLRRAIMGQYKNLDKPFCILMDTFQELEHEIIEYMSKISPIKTVGPLFKNPKAPNATVKGDFMKADDCVGWLDSKPASSIVYVSFGSVVYLKQDQWDEIAYGLLNSGVNFLWVMKPPHKDSGYEVLKMPEGFLEKAGDRGKVVQWSPQEQVLAHPSVACFVTHCGWNSTMEALTSGMPVVAFPQWGDQVTDAKYLVDVFKVGVRMCRGEAENKLITRDVVEQCLREATSGPKAEEMKQNAMKWSAAAEAAVAEGGSSDRNIQAFVDEVKRRSLEVLAASGKSTANGGADLANKVAANGVAELGEPKVNGELKVVS
B6: GT 3: Arabidopsis UDP-glucosyltransferase, GenBank AL161541.2, SEQ ID NO:8 (protein, listed as Arabidopsis thaliana)
chain: MMFETCPSPNPIHVMLVSFQGQGHVNPLLRLGKLIASKGLLVTFVTTELWGKKMRQANKIVDGELKPVGSGSIRFEFFDEEWAEDDDRRADFSLYIAHLESVGIREVSKLVRRYEEANEPVSCLINNPFIPWVCHVAEEFNIPCAVLWVQSCACFSAYYHYQDGSVSFPTETEPELDVKLPCVPVLKNDEIPSFLHPSSRFTGFRQAILGQFKNLSKSFCVLIDSFDSLEQEVIDYMSSLCPVKTVGPLFKVARTVTSDVSGDICKSTDKCLEWLDSRPKSSVVYISFGTVAYLKQEQIEEIAHGVLKSGLSFLWVIRPPPHDLKVETHVLPQELKESSAKGKGMIVDWCPQEQVLSHPSVACFVTHCGWNSTMESLSSGVPVVCCPQWGDQVTDAVYLIDVFKTGVRLGRGATEERVVPREEVAEKLLEATVGEKAEELRKNALKWKAEAEAAVAPGGSSDKNFREFVEKLGAGVTKTKDNGY

Columns and labels:
[1] = tested on: Grape GT; assay: Substrate specificity of the purified recombinant Grape GT, HPLC analysis of glucose ester formation; type: biochemical, Vitis sp.; details: relative to pHBA = 100, 10 mM test substrate, 0.0467 μM purified Grape GT, 15 min, 25° C.
Experimental: To rule out the possibility that the Grape GT can also attach glucose to the hydroxyl group of pHBA, the products of the in vitro enzyme reaction were directly analyzed by reverse phase HPLC. […] Following a 1-min incubation period at 25° C., the reactions were terminated by the addition of an equal volume of 0.2 N HCl. […] The column was developed at 1 mL/min with a linear gradient of 10–50% Buffer B that was generated over a 20-min period, and absorbance was monitored at 254 nm. […] To test this hypothesis, Applicants' decided to examine the substrate specificity of the Grape GT in greater detail. […] Following a 15-min incubation period at 25° C., the reactions were quenched with an equal volume of 0.3 M HCl and the entire reaction mixture was analyzed by HPLC as described above in Example 6. The products of the various reactions were identified using authentic chemical standards. The retention times and extinction coefficients of these compounds were determined using the same column conditions. […] Regardless of substrate, the purified recombinant Grape GT only catalyzed the formation of glucose esters, which in all cases co-migrated precisely with the authentic compounds. […] Since the glucose ester of the latter compound is the precursor for the synthesis of simple and complex tannins that are extremely abundant in grapes, it is possible that gallic acid is a physiological substrate of the Grape GT. The data shown in Table 3 make it clear that although the Grape GT glucosylated mHBA (3-hydroxybenzoic […]) at a reasonable rate, product formation with oHBA (2-hydroxybenzoic acid) was not observed.

[2] = Ratio of enzyme activity with pHBA versus sinapic acid (spectrophotometric assays); type: biochemical; details: for times more active with sinapic acid than pHBA / pHBA/SA ratio of enzyme activity: crude extract; for rate of pHBA glucosylation relative to sinapic acid: cell-free extract; for Ratio of Activity pHBA/SA: Table 4, cell-free extracts, 10 mM pHBA or sinapic acid, 25° C.
Experimental: (§1) The second assay is based on the increase in absorbance at 368 nm that accompanies the formation of the glucose ester of sinapic acid. The experimental conditions were the same as those described above, but the test substrate was sinapic acid and product formation was calculated using an extinction coefficient of 5,570 M^−1 that was obtained with the authentic chemically synthesized compound under identical conditions.

[3] = Continuous spectrophotometric UDP-glucosyltransferase assay, formation of pHBA glucose ester at 304 nm, E. coli cell-free extracts; type: biochemical; details: crude extract, 10 mM UDP-glucose, pH 7.3, 25° C.
Experimental: (§2) For protein production, the resulting recombinant strains were grown at 22° C. in 50 mL of LB media that contained kanamycin (50 μg/mL). At an A600 nm of ˜0.6, isopropyl-1-thio-β-D-galactopyranoside was added to a final concentration of 0.2 mM. Following a 22-h induction period at the same temperature, the cells were harvested by centrifugation and stored at −80° C. for subsequent manipulation as described below.
(§3) The frozen cell pellets were resuspended in 1.0 mL of a solution containing 100 mM Tris-HCl (pH 7.7), 5 mM MgSO4, 1 mM dithiothreitol, 0.03 mg/mL DNAse I, 0.5 mM phenylmethanesulfonyl fluoride, and passed once through a French pressure cell at 20,000 psi. Debris was removed by centrifugation (43,000×g, 60 min), and the resulting cell-free extracts, containing ˜15 mg of protein per mL, were supplemented with 5% glycerol and stored at −80° C. for subsequent measurements of enzyme activities. Protein concentrations were determined by the Bradford Method using bovine serum albumin as a standard.

[4] = Continuous spectrophotometric UDP-glucosyltransferase assay, formation of glucose ester of sinapic acid at 368 nm, E. coli cell-free extracts; type: biochemical; details: crude extract, 10 mM UDP-glucose, pH 7.3, 25° C.; for initial rate of product formation, 1 mM SA: 1 mM sinapic acid; for initial rate of product formation, 5 mM SA: 5 mM sinapic acid; for initial rate of product formation, 10 mM SA: 10 mM sinapic acid
Experimental: as §2, §3, §1

Molecule	Relative Rate of product formation [1]	times more active with sinapic acid than pHBA ([2]; 10 mM substrate)	substrate preference for pHBA over sinapic acid ([2]; 10 mM substrate concentration) [fold]	rate of pHBA glucosylation relative to sinapic acid ([2]; 10 mM substrate)	Ratio of Activity pHBA/SA [2]	pHBA/SA ratio of enzyme activity ([2]; 1 mM substrate)	pHBA/SA ratio of enzyme activity ([2]; 5 mM substrate)	pHBA/SA ratio of enzyme activity ([2]; 10 mM substrate)	initial rate of product formation, 1 mM pHBA [3] [μM per min]	initial rate of product formation, 5 mM pHBA [3] [μM per min]	initial rate of product formation, 10 mM pHBA [3] [μM per min]	initial rate of product formation, 1 mM SA [4] [μM per min]	initial rate of product formation, 5 mM SA [4] [μM per min]	initial rate of product formation, 10 mM SA [4] [μM per min]
O=C(O)c1cccc(O)c1 [MHBA, m-Hydroxybenzoic acid]	47	–	–	–	–	–	–	–	–	–	–	–	–	–
B1	–	at least 80 times	–	–	–	–	–	–	–	–	–	–	–	–
B2	–	–	4.88	at least six times faster	6.35	–	–	–	–	–	–	–	–	–
B3	–	at least 50 times	–	–	0.018	0.002	0.007	0.018	0.20	0.59	1.03	118	82	55.6
B4	–	–	–	–	0.141	0.044	0.049	0.141	0.23	0.45	0.83	5.18	9.2	5.9
B5	–	–	–	over an order of magnitude greater	13.2	–	–	–	–	–	–	–	–	–
B6	–	only about twice as active	–	–	0.454	0.064	0.268	0.454	9.4	42.3	64.9	146	158	143
